The target in assay [1] is T1, human FcγRIIb constitutively expressed on MDCK cells (human, UniProt P31994 43-310).
T1 sequence (looked up): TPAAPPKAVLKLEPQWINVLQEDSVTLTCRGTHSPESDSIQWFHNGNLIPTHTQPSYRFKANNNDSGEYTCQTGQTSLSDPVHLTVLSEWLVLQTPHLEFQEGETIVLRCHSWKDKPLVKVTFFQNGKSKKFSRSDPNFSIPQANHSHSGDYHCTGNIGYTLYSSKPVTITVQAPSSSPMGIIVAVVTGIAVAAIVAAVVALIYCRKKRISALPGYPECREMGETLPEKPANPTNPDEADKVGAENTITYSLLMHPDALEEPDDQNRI
As to the kind of experiment: cell-based or functional assay.

Assay [2] concerns the target T2, human FcγRIIaR extracellular domain with C-terminal His-tag (human, UniProt P12318 34-217).
T2 construct: also called human FcgRIIaR; FcγRIIa (type R)
T2 chain: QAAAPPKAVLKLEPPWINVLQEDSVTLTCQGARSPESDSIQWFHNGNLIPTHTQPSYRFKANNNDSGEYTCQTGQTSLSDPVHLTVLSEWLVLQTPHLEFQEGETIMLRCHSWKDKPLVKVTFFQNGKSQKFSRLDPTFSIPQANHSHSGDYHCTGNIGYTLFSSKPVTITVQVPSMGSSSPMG
As to the kind of experiment: SPR (BIACORE), antibody captured, FcgR analyte. On the procedure:
(§1) The kinetic analysis of interactions between these antibodies and FcγR was carried out using BIACORE® T200 or BIACORE® 4000 (GE Healthcare). HBS-EP+ (GE Healthcare) was used as the running buffer, and the measurement temperature was set to 25° C. A chip produced by immobilizing Protein A. Protein A/G or mouse anti-human IgG kappa light chain (BD Biosciences) onto a Series S Sensor Chip CM4 or CM5 (GE Healthcare) by the amine-coupling method was used. […] After the measurement, the antibody captured on the chip was washed off by allowing reaction with 10 mM glycine-HCl, pH1.5 and 25 mM NaOH so that the chip was regenerated and used repeatedly. The sensorgrams obtained as measurement results were analyzed by the 1:1 Langmuir binding model using the BIACORE® Evaluation Software to calculate the binding rate constant ka (L/mol/s) and dissociation rate constant kd (l/s), and the dissociation constant KD (mol/L) was calculated from these values. […] Regarding such interactions, KD values were calculated using the following 1:1 binding model described in BIACORE® T100 Software Handbook BR1006-48 Edition AE.
(§2) The behavior of interacting molecules according to the 1:1 binding model on BIACORE® can be described by Equation 1: Req=C·R max/(KD+C)+RI, wherein, Req is a plot of steady-state binding levels to analyte concentration. C is concentration, RI is bulk refractive index contribution in the sample, and Rmax is analyte binding capacity of the surface. When this equation is rearranged, KD can be expressed as Equation 2: KD=C·Rmax/(Req−RI)−C. KD can be calculated by substituting the values of Rmax, RI, and C into Equation 1 or Equation 2. From the current measurement conditions, RI=0, C=2 μmol/L can be used.

The target in assay [3] is T3, human FcγRIIIaV extracellular domain with C-terminal His-tag (human, UniProt P08637 17-208).
T3 construct: also called human FcgRIIIaV
T3 sequence (P08637 17-208 F176V): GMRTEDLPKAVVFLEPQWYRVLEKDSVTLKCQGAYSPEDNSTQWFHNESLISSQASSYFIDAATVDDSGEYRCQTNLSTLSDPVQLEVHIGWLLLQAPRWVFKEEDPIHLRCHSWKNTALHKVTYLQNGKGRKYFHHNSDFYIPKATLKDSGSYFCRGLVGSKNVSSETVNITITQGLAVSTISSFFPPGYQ
As to the kind of experiment: SPR (BIACORE), antibody captured, FcgR analyte. As for the experimental part:
as §1, §2
A general note: Surface plasmon resonance follows binding to a sensor surface in real time, without labels.

The target in assay [4] is T4, Human latent myostatin (human, UniProt O14793 25-266; O14793 267-375).
T4 construct: also called human myostatin latent form
T4 sequence 1: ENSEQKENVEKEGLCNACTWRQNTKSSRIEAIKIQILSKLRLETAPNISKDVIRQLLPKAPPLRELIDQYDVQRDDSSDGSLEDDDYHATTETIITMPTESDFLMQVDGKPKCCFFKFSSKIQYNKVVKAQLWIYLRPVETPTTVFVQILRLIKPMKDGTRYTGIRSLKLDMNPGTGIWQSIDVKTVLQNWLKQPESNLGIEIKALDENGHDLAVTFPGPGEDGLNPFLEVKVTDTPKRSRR
T4 sequence 2: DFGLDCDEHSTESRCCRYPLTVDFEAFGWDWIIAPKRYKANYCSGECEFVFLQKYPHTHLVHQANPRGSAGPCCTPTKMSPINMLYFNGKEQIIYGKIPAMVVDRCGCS
As to the kind of experiment: SPR 37C; KD pH 5.8 / KD pH 7.4. On the procedure: (§3) ProA/G (Pierce) was immobilized onto all flow cells of a CM4 chip using an amine coupling kit (GE Healthcare). All antibodies and analytes were prepared in ACES pH7.4 or pH5.8 buffer containing 20 mM ACES, 150 mM NaCl, 1.2 mM CaCl₂, 0.05% TWEEN®) 20, 0.005% NaN₃. […] Human, cyno, and mouse latent myostatin was injected at 3.125 to 50 nM prepared by two-fold serial dilution, followed by dissociation. The sensor surface was regenerated each cycle with 10 mM Glycine HCl pH1.5. Binding affinity was determined by processing and fitting the data to a 1:1 binding model using BIACORE® T200 Evaluation software, version 2.0 (GE Healthcare).

Assay [5] deals with T5, Cynomolgus monkey latent myostatin (cynomolgus monkey, UniProt Q95J86 25-266; Q95J86 267-375).
T5 construct: Latent form = complex of two propeptides and the mature dimer; also called Cyno latent myostatin
T5 sequence 1: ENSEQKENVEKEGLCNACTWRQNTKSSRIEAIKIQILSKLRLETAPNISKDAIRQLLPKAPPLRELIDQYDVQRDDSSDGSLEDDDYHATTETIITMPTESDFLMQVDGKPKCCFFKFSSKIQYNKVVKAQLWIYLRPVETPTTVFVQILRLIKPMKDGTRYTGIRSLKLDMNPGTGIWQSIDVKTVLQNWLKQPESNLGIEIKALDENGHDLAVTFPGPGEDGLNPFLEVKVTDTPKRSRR
T5 sequence 2: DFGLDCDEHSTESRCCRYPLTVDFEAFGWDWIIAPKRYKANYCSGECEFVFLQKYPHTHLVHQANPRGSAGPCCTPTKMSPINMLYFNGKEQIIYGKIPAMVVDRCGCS
As to the kind of experiment: SPR 37C; KD pH 5.8 / KD pH 7.4. As for the experimental part: as §3

For assay [6], the target named is T6, Mouse latent myostatin (mouse, UniProt O08689 26-267; O08689 268-376).
T6 construct: Latent form = complex of two propeptides and the mature dimer
T6 sequence 1: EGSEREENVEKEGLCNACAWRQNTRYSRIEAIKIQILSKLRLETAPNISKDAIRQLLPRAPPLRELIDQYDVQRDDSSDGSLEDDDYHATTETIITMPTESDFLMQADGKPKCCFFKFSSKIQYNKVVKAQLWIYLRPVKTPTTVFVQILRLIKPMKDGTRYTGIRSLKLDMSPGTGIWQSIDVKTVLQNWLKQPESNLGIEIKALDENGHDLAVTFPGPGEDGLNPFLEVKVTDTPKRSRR
T6 sequence 2: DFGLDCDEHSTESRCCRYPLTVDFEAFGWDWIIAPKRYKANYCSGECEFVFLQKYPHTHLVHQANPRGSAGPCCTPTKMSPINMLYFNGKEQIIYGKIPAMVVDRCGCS
As to the kind of experiment: SPR 37C; KD pH 5.8 / KD pH 7.4. On the procedure: as §3

B1: MS1032LO06-SG1 (M103205H795-SG1/M103202L889-SK1) (antibody, human IgG1, kappa)
heavy: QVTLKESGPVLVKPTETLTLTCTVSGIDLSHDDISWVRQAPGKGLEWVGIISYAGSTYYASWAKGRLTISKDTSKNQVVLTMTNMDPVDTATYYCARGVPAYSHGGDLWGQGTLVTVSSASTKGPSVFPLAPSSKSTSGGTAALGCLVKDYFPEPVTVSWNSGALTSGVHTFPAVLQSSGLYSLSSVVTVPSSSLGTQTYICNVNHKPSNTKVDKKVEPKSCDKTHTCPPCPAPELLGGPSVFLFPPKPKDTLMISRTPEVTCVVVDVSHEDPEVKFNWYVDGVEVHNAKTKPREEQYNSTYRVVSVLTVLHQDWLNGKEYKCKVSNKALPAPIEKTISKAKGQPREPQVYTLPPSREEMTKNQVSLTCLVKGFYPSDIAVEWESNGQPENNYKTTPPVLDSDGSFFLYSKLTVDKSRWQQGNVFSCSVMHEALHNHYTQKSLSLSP
light: DIVMTQSPATLSLSPGERATLSCTSSQSVYHANWLSWFQQKPGQPPKLLIYWASTLAYGVPSRFSGSGSGTDFTLTISSLQPEDAATYYCAGGYGGGRYAFGQGTKVEIKRTVAAPSVFIFPPSDEQLKSGTASVVCLLNNFYPREAKVQWKVDNALQSGNSQESVTEQDSKDSTYSLSSTLTLSKADYEKHKVYACEVTHQGLSSPVTKSFNRGEC
notes: Anti-latent myostatin antibody
For the molecule B1, in assay [1], the celluar uptake is 1 relative to SG1 (=1.00).

B2: MS_M103205H795-SG1/M103202L889-SK1 (antibody, human IgG1, kappa)
heavy: not shown
light: DIVMTQSPATLSLSPGERATLSCTSSQSVYHANWLSWFQQKPGQPPKLLIYWASTLAYGVPSRFSGSGSGTDFTLTISSLQPEDAATYYCAGGYGGGRYAFGQGTKVEIKRTVAAPSVFIFPPSDEQLKSGTASVVCLLNNFYPREAKVQWKVDNALQSGNSQESVTEQDSKDSTYSLSSTLTLSKADYEKHKVYACEVTHQGLSSPVTKSFNRGEC
notes: Parent antibody of the Fc variants; also called MS1032LO06-SG1
The Kd is the constant that tells how readily two partners part at equilibrium. B2: the Kd in assay [2] amounted to 1100 nM; in assay [3], 810 nM.

B3: MS_M103205H795-SG1/M103202L889-SK1 (antibody, human IgG1, kappa)
heavy: not shown
light: DIVMTQSPATLSLSPGERATLSCTSSQSVYHANWLSWFQQKPGQPPKLLIYWASTLAYGVPSRFSGSGSGTDFTLTISSLQPEDAATYYCAGGYGGGRYAFGQGTKVEIKRTVAAPSVFIFPPSDEQLKSGTASVVCLLNNFYPREAKVQWKVDNALQSGNSQESVTEQDSKDSTYSLSSTLTLSKADYEKHKVYACEVTHQGLSSPVTKSFNRGEC
notes: also called MS1032LO06-SG1
B3: the entries for the “ratio of KD at pH 5.8/pH 7.4” value in assay [4], in assay [5] and in assay [6] were 119, 76 and 76, respectively.

For the origin of these results see patent US20200317768A1 (published 2020).
